{
  "source": "patent US10494417B2",
  "about": "“Peptide inhibitors of BCR-ABL oligomerization” (University of Utah Research Foundation, priority 2014, dated 2019)",
  "key": {"K562 cells [1]": {"system": "K562 cells", "assay": "Nuclear (DNA) segmentation apoptosis assay in transfected K562 cells", "assay_type": "cell-based, human", "conditions": "48 h, vs EGFP control", "protocol": "CC^mut3 was then tested for its ability to induce apoptosis in K562 cells. Apoptosis was observed using 3 different methods: 1) nuclear segmentation; 2) induction of the effector Caspase-3/7; and 3) 7AAD/Annexin V staining.\nNuclear segmentation analysis was performed as previously described (16). Briefly, immediately prior to cellular analysis, 2-well live cell chambers were treated for 15 min with poly-L-lysine (Sigma-Aldrich, St. Louis, Mo., USA), to allow cell adhesion in the wells. Forty-eight h following transfection, the transfected K562 cells were transferred to the pretreated 2-well live cell chambers. Cells were incubated for 15 min at 37° C. following the addition of 0.3 μL Hoechst H33342 nuclear stain (Life Technologies, Carlsbad, Calif., USA). Cells were then imaged using an inverted fluorescence microscope (Olympus IX701F, Scientific Instrument Co., Sunnyvale, Calif., USA) equipped with an F-view Monochrome CCD camera. Fields of view were selected based on EGFP fluorescence when viewing using a 40× oil immersion objective. Nuclei from cells that were positively transfected (positive for EGFP fluorescence) were categorized as either healthy (round or kidney-shaped nuclei) or segmented (punctate staining of nuclei), and the percentage of cells with segmented DNA was calculated (n=3 in replicate)."}, "K562 cells [2]": {"system": "K562 cells", "assay": "Colony forming assay of protein-treated K562 cells", "assay_type": "cell-based, human", "conditions": "proteins 30 μM, imatinib 1.0 μM; colonies counted after 7 days", "protocol": "This experiment was carried out as before with the modifications noted below. […] 1×10^3 cells (in 1.1 mL) were seeded in a 6-well plate (CellStar), in duplicate for each treatment. 7 days after seeding cells, colonies were counted in a […] area per well. Independent treatments were tested 3 times in duplicate (n=3). All reagents for the CFA were purchased from Stem Cell Technologies, Vancouver, BC, Canada."}, "mCherry-tagged Bcr-Abl": {"biological_target": "T1, mCherry-tagged Bcr-Abl (Homo sapiens, UniProt P00519+P11274)", "T1 construct": "expressed in transfected cells; host or cells: Cos-7", "T1 sequence (P11274 1-72 limits assumed)": "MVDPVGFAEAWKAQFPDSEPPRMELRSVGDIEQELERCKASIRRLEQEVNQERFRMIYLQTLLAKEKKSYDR", "assay": "Colocalization analysis in Cos-7 cells", "assay_type": "cell-based", "conditions": "EGFP-tagged CC^mut3 co-transfected with mCherry-tagged Bcr-Abl", "protocol": "Next, the ability of CC^mut3 to bind to BCR-ABL in live cells was analyzed (FIG. 8B). Colocalization analysis was performed by co-transfecting mCherry-tagged Bcr-Abl and EGFP-tagged CC^mut3 into Cos-7 cells."}, "[3]": {"system": "CML CD34+ cells expressing BCR-ABL1T315I", "assay": "Colony forming assay of primary CML CD34+ cells expressing BCR-ABL1T315I (samples R1, R2)", "assay_type": "cell-based, human", "protocol": "Mononuclear cells (MNCs) were separated from the peripheral blood of patients with newly diagnosed or therapy-resistant CML with a documented T315I mutation, using Ficoll (Nycomed, Oslo, Norway). Isolation of the CD34^+ fraction was done on an autoMACS Pro (Miltenyi Biotech). […] Cells were infected with lentivirus at a multiplicity of infection (MOI) of 5 for each construct at 24 and 48 hours following harvest (fresh cells) or thaw (frozen cells). Cells were sorted on a BD FACSAria cytometer after 72 h, and GFP-positive cells were returned to culture medium for future experiments. All patients gave their informed consent in accordance with the Declaration of Helsinki, and all studies with human specimens were approved by The University of Utah Institutional Review Board (IRB).\nBriefly, lentivirus-infected (GFP^+) cells were isolated by FACS and resuspended in RPMI1640. […] Plates were incubated at 37° C. in a 5% CO2 humidified incubator for 14 days. Colony forming units of granulocyte-macrophage (CFU-GM) were counted on day 14 using an inverted microscope.\nAll cells were plated with or without the indicated TKI in three or more independent experiments. Plates were incubated at 37° C. in a 5% CO2 humidified incubator. Colonies were counted 7-14 days later in an area of 50 μm2 per dish using an inverted microscope."}, "[4]": {"conditions": "sample R1 (accelerated phase), lentiviral CCmut3 or 10 nM ponatinib vs EV"}},
  "note": "“Also recorded” adds a separate entry of the source.",
  "data": [
    {"molecule": "CCmut3: modified Bcr-Abl coiled-coil domain (residues 1-72) with mutations C38A, K39E, S41R, L45D, E48R, Q60E (protein) MVDPVGFAEAWKAQFPDSEPPRMELRSVGDIEQELERAEARIRRDEQRVNQERFRMIYLETLLAKEKKSYDR", "values": [
      {"measurement": "induction of apoptosis (nuclear/DNA segmentation)", "setting": "K562 cells [1]", "result": "increase in apoptosis; also recorded: significantly induced apoptosis"},
      {"measurement": "induction of apoptosis (nuclear/DNA segmentation)", "setting": "K562 cells [1]; listed as CC^mut3", "result": "induces apoptosis; also recorded: causing apoptosis via nuclear segmentation"},
      {"measurement": "colony forming (transformative ability)", "setting": "K562 cells [2]", "result": "ineffective at reducing cell proliferation and colony forming compared to untreated cells"},
      {"measurement": "intracellular colocalization with BCR-ABL (Costes' coefficient)", "setting": "mCherry-tagged Bcr-Abl", "result": "intracellular colocalization"},
      {"measurement": "colony formation, in words", "setting": "[3]; [4]", "result": "even greater sensitivity to transduction with CCmut3"},
      {"measurement": "reduction of colony formation", "setting": "[3]; [4]", "result": 76, "unit": "%"},
      {"measurement": "colony formation, in words", "setting": "[3]; sample R1 (accelerated phase), lentiviral CCmut3 or 10 nM ponatinib vs EV, listed as CC^mut3", "result": "reduced colony formation to a similar degree"},
      {"measurement": "colony formation, in words", "setting": "[3]; sample R2 (blast crisis, after ponatinib failure), lentiviral CCmut3 or ponatinib vs EV", "result": "only minimal activity"},
      {"measurement": "colony formation, in words", "setting": "[3]; sample R2 (blast crisis, after ponatinib failure), lentiviral CCmut3 or ponatinib vs EV, listed as CC^mut3", "result": "insensitive"},
      {"measurement": "reduction of colony formation", "setting": "[3]; sample R2 (blast crisis, after ponatinib failure), lentiviral CCmut3 vs EV", "result": "~25", "unit": "%"}
    ]}
  ]
}
